In patent publication US20230220070A1 (ARIALYS THERAPEUTICS, published 2023):

Experiments:
[1] = molecular target: T1, human NR1-His protein (extracellular domain of human NR1 with linker, HisTag and AviTag) (human, UniProt Q05586 19-392); assay: SPR (Biacore T200), antibody captured by anti-human IgG on a CM5 chip, human NR1-His protein as analyte, 1:1 binding model
T1 construct: Expressed in Expi293F cells and purified from the supernatant; also called human NRA-His protein; human NR-His protein

[2] = molecular target: T1, human NR1-His protein (extracellular …); assay: competition ELISA on plate-coated human NR1-His protein; inhibition of the binding of biotin-labelled P003-102, streptavidin-HRP chemiluminescence
Experimental: Specifically, 15 μL of the human NR1-His protein solution (1 μg/mL in Tris Buffered Saline (herein referred to as “TBS”)) was added to the 384 well plate (Thermo Fisher Scientific, 460372) and incubated overnight at 4° C. Then, the human NRA-His protein solution was removed and washed with 0.5% Tween-20 comprising TBS, NIPPON GENE, 310-07375 (referred to as “TBS-T”). After the wash, 50 uL of Blocking One (Nacalai Tesque, Inc., 03953-95) was added and incubated at room temperature for 1 hour or more.
After the wash, 15 μL is added to the HRP-labelled streptavidin (Funakoshi Co., Ltd., 21130) diluted 8,000 times using diluent, and incubated at room temperature for 30 minutes.

[3] = molecular target: T2, human NMDAR (NR1/NR2B) on NMDAR expressing HEK cells (human, UniProt Q05586 19-938; Q13224 27-1484); assay: flow cytometry on NMDAR-expressing HEK cells, PE-labelled anti-human IgG, GeoMFI
T2 construct: whole, on cells; Commercial HEK cell line (Charles River Laboratories, CTN6121); The antibodies are directed against the NR1 subunit; also called cell surface NMDAR; NMDAR expressed in HEK cells
Experimental: The binding activity of the produced humanized one-armed anti-human NR1 monoclonal antibodies was evaluated in a flow cytometry trial using the NMDAR expressing HEK cell.
The NMDAR expressing HEK cells were induced overnight and collected. […] After staining, the cells were sedimented at 1,200 rpm for 5 minutes and the supernatant was removed. After adding 2% Dialyzed FBS to the cells, the cells were centrifuged and sedimented. After the supernatant was removed, the PE labeled anti-human IgG antibody (Jackson ImmunoResearch Laboratories, 109-116-098) was diluted 100 times with 2% Dialyzed FBS and added to cells for 30 minutes at 4° C. After staining, the cells were centrifuged and sedimented as described above. After removing the supernatant, the cells were suspended in 2% Dialyzed FBS and the steps after secondary staining were repeated. The flow cytometry (FACS Verse) was measured as described in Example 3. each antibody binds with the cell surface NMDAR from GeoMFI showing the PE Fluorescence intensity value was analyzed using FlowJo (Becton Dickinson, Ver. 10.0.8).

Row | Binder | Kd [1] [pM] | IC50 (read off the curve) [2] [µg/mL] | EC50 (read off the curve) [3] [µg/mL]
1 | ABN-4, humanized one-armed anti-human NR1 antibody (antibody, human IgG1, kappa, L234A L235A) heavy: not shown light: DIQMTQSPSSLSASVGDRVTITCRPSENIYSNLAWYQQKPGKAPKLLVYAATNLADGVPSRFSGSGSGTDYTLTISSLQPEDIATYYCQHFWDSPPTFGQGTKLEIKRTVAAPSVFIFPPSDEQLKSGTASVVCLLNNFYPREAKVQWKVDNALQSGNSQESVTEQDSKDSTYSLSSTLTLSKADYEKHKVYACEVTHQGLSSPVTKSFNRGEC not shown | 878 | ~2 | 
2 | ABN-5, one-armed anti-human NR1 antibody derived from P003-102 (antibody, human IgG1, lambda, L234A L235A, Monovalent one-armed antibody made of one heavy chain (LALA; T366S, L368A, Y407V), one light chain and one Fc polypeptide) heavy: not shown light: NFMLTQPHSVSESPGKTVTISCTRSSGSIASNYVQWYQQRPGSAPTTVIYEDNQRPSGVPDRFSGSIDSSSNSASLTISGLKTEDEADYYCQSYDSSTVVFGGGTKLTVLGQPKANPTVTLFPPSSEELQANKATLVCLISDFYPGAVTVAWKADGSPVKAGVETTKPSKQSNNKYAASSYLSLTPEQWKSHRSYSCQVTHEGSTVEKTVAPTECS not shown |  |  | ~0.8
3 | ABN-2, humanized one-armed anti-human NR1 antibody (antibody, human IgG1, kappa, L234A L235A, also called ABN_178-m3) heavy: not shown light: DLQMTQSPSSLSASVGDRVTITCKASQDVNTAVAWYQQKPGKAPKLLIYWASTRHTGVPSRFSGSGSGTDYTLTISSLQPEDFATYYCQQHYSTPFTFGQGTKVEIKRTVAAPSVFIFPPSDEQLKSGTASVVCLLNNFYPREAKVQWKVDNALQSGNSQESVTEQDSKDSTYSLSSTLTLSKADYEKHKVYACEVTHQGLSSPVTKSFNRGEC not shown |  | ~0.3 | ~0.05
